Assay results: patent US20200392227A1 (LYVGEN BIOPHARMA, published 2020)
Like-named read-outs stand apart in the source and are kept apart here. Blank lines part the entries; values can stand above or below the binder they belong to.

Tests used:
[1] = molecular target: T1, human FcγRIIC expressed on CHO cells (human, UniProt P31995 43-323); assay: FACS, CHO cells expressing FcγRIIC
T1 construct: whole, on cells
T1 sequence (looked up): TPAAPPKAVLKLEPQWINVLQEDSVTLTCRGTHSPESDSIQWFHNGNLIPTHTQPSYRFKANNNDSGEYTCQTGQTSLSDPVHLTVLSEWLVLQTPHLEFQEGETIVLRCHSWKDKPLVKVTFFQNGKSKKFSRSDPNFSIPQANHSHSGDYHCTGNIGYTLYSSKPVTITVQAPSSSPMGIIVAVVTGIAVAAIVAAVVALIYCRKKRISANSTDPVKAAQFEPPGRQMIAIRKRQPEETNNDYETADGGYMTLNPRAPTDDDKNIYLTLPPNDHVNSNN
Experimental: (§1) For FACS analysis of the IgG mutants' binding to different FcγRs, FcγR overexpressing CHO cells were harvested using trypsin-EDTA and were suspended in cold staining buffer (3% BSA in PBS). Test IgG mutants, which were diluted in staining buffer, were added into the cells. The mixture was incubated 4° C. for 2 hours, and then washed twice with cold staining buffer and re-suspended in PE-labeled anti-human IgG followed by incubation at 4° C. for 2 hours. The mixture was washed twice with staining buffer and re-suspended in 2% PFA in PBS for FACS.

[2] = molecular target: T2, human FcRIIA protein (MednaBio, E1033) (human, UniProt P12318 34-218, limits assumed); assay: BLI
T2 construct: Bought; also called FcγRIIA
T2 sequence (looked up): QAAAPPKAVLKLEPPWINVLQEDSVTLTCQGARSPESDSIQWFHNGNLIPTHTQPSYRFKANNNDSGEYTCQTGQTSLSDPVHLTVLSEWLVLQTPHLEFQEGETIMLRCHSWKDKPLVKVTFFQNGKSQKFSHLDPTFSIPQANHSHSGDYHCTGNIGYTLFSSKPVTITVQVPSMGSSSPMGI
Method in brief: (§2)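 Binding was measured by biolayer interferometry on an Octet Red96 System, with commercial human Fc receptor proteins loaded at 20 μg/mL onto anti-penta-HIS biosensors. Sensors were dipped into an 8-point 1:3 dilution series of test IgG starting at 300 nM in PBS with 0.1% BSA and 0.02% Tween-20. Fcγ receptor assays ran at pH 7.2 and FcRn assays at pH 6. Kd, kon and koff came from global fitting to a 1:1 binding model.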

[3] = molecular target: T3, human FcRIIIA-F158 protein (MednaBio, E1036) (human, UniProt P08637 17-208); assay: BLI
T3 construct: Bought; also called FcγRIIIA(F)
T3 sequence (P08637 17-208 limits assumed): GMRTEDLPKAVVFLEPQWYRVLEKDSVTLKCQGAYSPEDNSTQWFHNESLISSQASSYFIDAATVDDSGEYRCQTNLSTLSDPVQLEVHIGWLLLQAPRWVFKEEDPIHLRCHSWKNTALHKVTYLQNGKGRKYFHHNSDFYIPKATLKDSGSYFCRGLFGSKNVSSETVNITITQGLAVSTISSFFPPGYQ
Method in brief: as §2

[4] = molecular target: T4, human FcRI protein (MednaBio, E1031) (human, UniProt P12314 16-288, limits assumed); assay: BLI
T4 construct: Bought; loaded on anti-penta-HIS biosensors; also called FcγRI
T4 sequence (P12314 16-288 limits assumed): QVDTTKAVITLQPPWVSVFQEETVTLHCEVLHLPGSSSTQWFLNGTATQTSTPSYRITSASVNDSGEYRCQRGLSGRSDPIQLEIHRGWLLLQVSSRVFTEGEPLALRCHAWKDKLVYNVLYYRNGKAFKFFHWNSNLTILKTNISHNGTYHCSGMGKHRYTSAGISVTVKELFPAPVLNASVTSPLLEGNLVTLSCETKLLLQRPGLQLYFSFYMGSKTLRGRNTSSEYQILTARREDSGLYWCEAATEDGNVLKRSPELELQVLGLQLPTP
Method in brief: as §2

[5] = molecular target: T5, human FcRIIIB protein (MednaBio, E1037) (human, UniProt O75015 17-200); assay: BLI
T5 construct: Bought; also called FcγRIIIB; FcgRIIIB
T5 sequence (O75015 17-200 limits assumed): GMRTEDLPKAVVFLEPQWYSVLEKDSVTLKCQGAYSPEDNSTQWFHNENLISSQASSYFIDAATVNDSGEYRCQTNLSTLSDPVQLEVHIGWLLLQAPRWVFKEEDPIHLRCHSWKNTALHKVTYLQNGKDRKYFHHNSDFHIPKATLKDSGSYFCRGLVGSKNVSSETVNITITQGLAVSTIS
Method in brief: as §2

[6] = molecular target: T6, human FcRIIB/C protein (MednaBio, E1034) (human, UniProt P31994 43-217, limits assumed); assay: BLI
T6 construct: Bought as FcRIIB/C; also called FcγRIIB; CD32B
T6 sequence (looked up): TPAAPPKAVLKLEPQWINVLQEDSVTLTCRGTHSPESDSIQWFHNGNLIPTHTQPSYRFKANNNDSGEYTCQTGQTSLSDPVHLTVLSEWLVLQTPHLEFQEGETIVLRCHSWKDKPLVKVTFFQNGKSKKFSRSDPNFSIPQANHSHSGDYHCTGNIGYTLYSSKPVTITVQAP
Method in brief: as §2

[7] = molecular target: T7, human FcRIIIA-V158 protein (MednaBio, E1035) (human, UniProt P08637 17-208); assay: BLI
T7 construct: Bought; also called FcγRIIIA(V); FcgRIIIA(V)
T7 sequence (P08637 17-208 F176V): as the sequence (P08637 17-208 limits assumed) above, with F160V counted along it
Method in brief: as §2

[8] = molecular target: T8, human FcRn protein (MednaBio, E1032) (human, UniProt P55899 24-297; P61769 21-119); assay: BLI
T8 construct: Bought; assays at pH 6
Method in brief: as §2

[9] = molecular target: T2, human FcRIIA protein (MednaBio, E1033); assay: BLI; remark: listed apart in the source
Method in brief: as §2

[10] = molecular target: T3, human FcRIIIA-F158 protein (MednaBio, …); assay: BLI; remark: listed apart in the source
Method in brief: as §2

[11] = molecular target: T4, human FcRI protein (MednaBio, E1031); assay: BLI; remark: listed apart in the source
Method in brief: as §2

[12] = molecular target: T5, human FcRIIIB protein (MednaBio, E1037); assay: BLI; remark: listed apart in the source
Method in brief: as §2

[13] = molecular target: T6, human FcRIIB/C protein (MednaBio, E1034); assay: BLI; remark: listed apart in the source
Method in brief: as §2

[14] = molecular target: T7, human FcRIIIA-V158 protein (MednaBio, …); assay: BLI; remark: listed apart in the source
Method in brief: as §2

[15] = molecular target: T8, human FcRn protein (MednaBio, E1032); assay: BLI; remark: listed apart in the source
Method in brief: as §2

[16] = molecular target: T9, human FcγRI expressed on CHO cells (human, UniProt P12314 16-374); assay: FACS, CHO cells expressing FcγRI
T9 construct: whole, on cells
T9 sequence (P12314 16-374): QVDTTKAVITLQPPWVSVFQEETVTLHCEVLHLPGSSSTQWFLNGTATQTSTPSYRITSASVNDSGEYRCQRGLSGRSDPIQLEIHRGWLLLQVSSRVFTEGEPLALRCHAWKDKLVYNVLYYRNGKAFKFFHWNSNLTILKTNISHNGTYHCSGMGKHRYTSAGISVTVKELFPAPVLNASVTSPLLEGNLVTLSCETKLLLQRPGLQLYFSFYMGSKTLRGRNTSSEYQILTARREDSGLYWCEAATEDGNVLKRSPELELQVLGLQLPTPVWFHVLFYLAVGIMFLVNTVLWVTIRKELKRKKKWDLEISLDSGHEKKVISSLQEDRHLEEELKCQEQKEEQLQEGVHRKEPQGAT
Experimental: as §1

[17] = molecular target: T2, human FcRIIA protein (MednaBio, E1033); assay: BLI; remark: listed apart in the source
Method in brief: as §2

[18] = molecular target: T4, human FcRI protein (MednaBio, E1031); assay: BLI; remark: listed apart in the source
Method in brief: as §2

[19] = molecular target: T6, human FcRIIB/C protein (MednaBio, E1034); assay: BLI; remark: listed apart in the source
Method in brief: as §2

[20] = molecular target: T8, human FcRn protein (MednaBio, E1032); assay: BLI; remark: listed apart in the source
Method in brief: as §2

binding result [1]: binds | Kd [2]: 81 nM | koff [2]: 0.019 s⁻¹ | kon [2]: 240000 M⁻¹ s⁻¹ | binding result [3]: no binding (tested: 300 nM) | Kd [4]: 120 nM | koff [4]: 0.086 s⁻¹ | kon [4]: 710000 M⁻¹ s⁻¹ | binding result [5]: no binding (tested: 300 nM) | Kd [6]: 110 nM | koff [6]: 0.028 s⁻¹ | kon [6]: 260000 M⁻¹ s⁻¹ | binding result [7]: no binding (tested: 300 nM) | Kd [8]: 13.4 nM | koff [8]: 0.0103 s⁻¹ | kon [8]: 770000 M⁻¹ s⁻¹
B1: anti-CD137 IgG1 with Fc variant G1m19 (antibody)
heavy: EVQLVQSGAEVKKPGESLRISCKGSGYSFSTYWISWVRQMPGKGLEWMGKIYPGDSYTNYSPSFQGQVTISADKSISTAYLQWSSLKASDTAMYYCARGYGIFDYWGQGTLVTVSSASTKGPSVFPLAPSSKSTSGGTAALGCLVKDYFPEPVTVSWNSGALTSGVHTFPAVLQSSGLYSLSSVVTVPSSSLGTQTYICNVNHKPSNTKVDKKVEPKSCDKTHTCPPCPAPELLSVFLFPPKPKDTLMISRTPEVTCVVVDVEHEDPEVKFNWYVDGVEVHNAKTKPREEQYNSTYRVVSVLTVLHQDWLNGKEYKCKVSNKAFPAPIEKTISKAKGQPREPQVYTLPPSREEMTKNQVSLTCLVKGFYPSDIAVEWESNGQPENNYKTTPPVLDSDGSFFLYSKLTVDKSRWQQGNVFSCSVMHEALHNHYTQKSLSLSPGK
light: SYELTQPPSVSVSPGQTASITCSGDNIGDQYAHWYQQKPGQSPVLVIYQDKNRPSGIPERFSGSNSGNTATLTISGTQAMDEADYYCATYTGFGSLAVFGGGTKLTVLGQPKAAPSVTLFPPSSEELQANKATLVCLISDFYPGAVTVAWKADSSPVKAGVETTTPSKQSNNKYAASSYLSLTPEQWKSHRSYSCQVTHEGSTVEKTVAPTECS
notes: copies: 2 + 2

Kd [9]: 336 nM | koff [9]: 0.0836 s⁻¹ | kon [9]: 249000 M⁻¹ s⁻¹ | binding result [10]: no binding (tested: 300 nM) | binding result [11]: no binding (tested: 300 nM) | binding result [12]: no binding (tested: 300 nM) | Kd [13]: 240 nM | koff [13]: 0.0387 s⁻¹ | kon [13]: 162000 M⁻¹ s⁻¹ | binding result [14]: no binding (tested: 300 nM) | Kd [15]: 35.4 nM | koff [15]: 0.00941 s⁻¹ | kon [15]: 265000 M⁻¹ s⁻¹ | binding result [16]: no binding (tested: 10 ug/mL)
B2: anti-CD137 IgG2 with Fc variant G2m19 (antibody)
heavy: EVQLVQSGAEVKKPGESLRISCKGSGYSFSTYWISWVRQMPGKGLEWMGKIYPGDSYTNYSPSFQGQVTISADKSISTAYLQWSSLKASDTAMYYCARGYGIFDYWGQGTLVTVSSASTKGPSVFPLAPCSRSTSESTAALGCLVKDYFPEPVTVSWNSGALTSGVHTFPAVLQSSGLYSLSSVVTVPSSNFGTQTYTCNVDHKPSNTKVDKTVERKCCVECPPCPAPPVASVFLFPPKPKDTLMISRTPEVTCVVVDVEHEDPEVQFNWYVDGVEVHNAKTKPREEQFNSTFRVVSVLTVVHQDWLNGKEYKCKVSNKGFPAPIEKTISKTKGQPREPQVYTLPPSREEMTKNQVSLTCLVKGFYPSDIAVEWESNGQPENNYKTTPPMLDSDGSFFLYSKLTVDKSRWQQGNVFSCSVMHEALHNHYTQKSLSLSPGK
light: SYELTQPPSVSVSPGQTASITCSGDNIGDQYAHWYQQKPGQSPVLVIYQDKNRPSGIPERFSGSNSGNTATLTISGTQAMDEADYYCATYTGFGSLAVFGGGTKLTVLGQPKAAPSVTLFPPSSEELQANKATLVCLISDFYPGAVTVAWKADSSPVKAGVETTTPSKQSNNKYAASSYLSLTPEQWKSHRSYSCQVTHEGSTVEKTVAPTECS
notes: copies: 2 + 2

binding result [1]: binds | Kd [17]: 1800 nM | koff [17]: 0.055 s⁻¹ | kon [17]: 31000 M⁻¹ s⁻¹ | Kd [18]: 56 nM | koff [18]: 0.027 s⁻¹ | kon [18]: 490000 M⁻¹ s⁻¹ | Kd [19]: 180 nM | koff [19]: 0.034 s⁻¹ | kon [19]: 190000 M⁻¹ s⁻¹ | Kd [20]: 20 nM | koff [20]: 0.012 s⁻¹ | kon [20]: 580000 M⁻¹ s⁻¹
B3: anti-CD137 IgG4 with Fc variant G4m28 (antibody)
heavy: EVQLVQSGAEVKKPGESLRISCKGSGYSFSTYWISWVRQMPGKGLEWMGKIYPGDSYTNYSPSFQGQVTISADKSISTAYLQWSSLKASDTAMYYCARGYGIFDYWGQGTLVTVSSASTKGPSVFPLAPCSRSTSESTAALGCLVKDYFPEPVTVSWNSGALTSGVHTFPAVLQSSGLYSLSSVVTVPSSSLGTKTYTCNVDHKPSNTKVDKRVESKYGPPCPPCPAPEFLGPSVFLFPPKPKDTLMISRTPEVTCVVVDVSQEDPEVQFNWYVDGVEVHNAKTKPREEQFNSTYRVVSVLTVLHQDWLNGKEYKCKVSNKGFPSSIEKTISKAKGQPREPQVYTLPPSQEEMTKNQVSLTCLVKGFYPSDIAVEWESNGQPENNYKTTPPVLDSDGSFFLYSRLTVDKSRWQEGNVFSCSVMHEALHNHYTQKSLSLSLGK
light: SYELTQPPSVSVSPGQTASITCSGDNIGDQYAHWYQQKPGQSPVLVIYQDKNRPSGIPERFSGSNSGNTATLTISGTQAMDEADYYCATYTGFGSLAVFGGGTKLTVLGQPKAAPSVTLFPPSSEELQANKATLVCLISDFYPGAVTVAWKADSSPVKAGVETTTPSKQSNNKYAASSYLSLTPEQWKSHRSYSCQVTHEGSTVEKTVAPTECS
notes: copies: 2 + 2

binding result [1]: binds | Kd [17]: 260 nM | koff [17]: 0.027 s⁻¹ | kon [17]: 100000 M⁻¹ s⁻¹ | Kd [18]: 44 nM | koff [18]: 0.023 s⁻¹ | kon [18]: 520000 M⁻¹ s⁻¹ | Kd [19]: 78 nM | koff [19]: 0.013 s⁻¹ | kon [19]: 170000 M⁻¹ s⁻¹ | Kd [20]: 23 nM | koff [20]: 0.013 s⁻¹ | kon [20]: 560000 M⁻¹ s⁻¹
B4: anti-CD137 IgG4 with Fc variant G4m29 (antibody)
heavy: EVQLVQSGAEVKKPGESLRISCKGSGYSFSTYWISWVRQMPGKGLEWMGKIYPGDSYTNYSPSFQGQVTISADKSISTAYLQWSSLKASDTAMYYCARGYGIFDYWGQGTLVTVSSASTKGPSVFPLAPCSRSTSESTAALGCLVKDYFPEPVTVSWNSGALTSGVHTFPAVLQSSGLYSLSSVVTVPSSSLGTKTYTCNVDHKPSNTKVDKRVESKYGPPCPPCPAPEFLGPSVFLFPPKPKDTLMISRTPEVTCVVVDVEQEDPEVQFNWYVDGVEVHNAKTKPREEQFNSTYRVVSVLTVLHQDWLNGKEYKCKVSNKGFPSSIEKTISKAKGQPREPQVYTLPPSQEEMTKNQVSLTCLVKGFYPSDIAVEWESNGQPENNYKTTPPVLDSDGSFFLYSRLTVDKSRWQEGNVFSCSVMHEALHNHYTQKSLSLSLGK
light: SYELTQPPSVSVSPGQTASITCSGDNIGDQYAHWYQQKPGQSPVLVIYQDKNRPSGIPERFSGSNSGNTATLTISGTQAMDEADYYCATYTGFGSLAVFGGGTKLTVLGQPKAAPSVTLFPPSSEELQANKATLVCLISDFYPGAVTVAWKADSSPVKAGVETTTPSKQSNNKYAASSYLSLTPEQWKSHRSYSCQVTHEGSTVEKTVAPTECS
notes: copies: 2 + 2
